The source of these data is patent US20210246200A1 (UNIVERSIT T Z RICH, published 2021).

Test [1] concerns the target T1, Proleukin® (aldesleukin) (human, UniProt P60568 21-153, limits assumed).
T1 construct: Variant of human wt IL-2 with C145S (C125S on mature IL-2); also called IL-2 (Proleukin®); human IL-2 (Proleukin)
Put plainly: ELISA, coated Proleukin, mean of 3 experiments. (In general: ELISA stands for enzyme-linked immunosorbent assay.)
Procedure: ELISA plates (Corning) were coated with human IL-2 (Proleukin) at 10 μg/mL in PBS overnight at 4° C. The plates were washed 6 times with PBST, then blocked in 1% BSA/PBST for 2 hours. After blocking and washing, the anti-human IL-2 antibodies were added on the plate in an 11-point dilution series in 1% BSA/PBST and incubated for 2 hours. […] The plates were then washed again and incubated with Streptavidin-Horseradish Peroxidase in 1% BSA/PBS for 45 minutes. After washing, the substrate (R&D Systems) was added into the plates and the enzymatic reaction was stopped after 3 minutes by adding Stop Solution. The plates were read by a microplate reader at 450 nm with a wavelength correction set to 540 nm.

The target in test [2] is T1, Proleukin® (aldesleukin). The test can be described thus: ELISA, coated Proleukin, HEK293F supernatant 1:2.
Procedure: Subsequently, hIL-2 binding efficiency of the antibodies present in the supernatants was determined using ELISA. In brief, ELISA plates (Maxisorp 96-well black microtiter plate) were coated overnight at 4° C. with 100p/well of Proleukin® (5 μg/ml PBS). ELISA plates were washed once with TBST (1×TBS/0.05% Tween 20) using a plate-washer (BioTek). […] After removal of the blocking buffer, plates were washed once with TBST using the plate washer. Supernatants were diluted 1:2 in blocking buffer and 50 μl transferred to the designated well of the ELISA plate. Each sample was present on three ELISA plates. The three plates were incubated at RT under gentle agitation. […] The other two plates were washed either every hour three times with TBST for 4 hours or washed every hour three times for 12 hours before adding the detection antibody. […] Luminescence signal was measured after 5 minutes incubation in the dark. […] All ELISA values are mean values based on two measurements.
Test [3] deals with T1, Proleukin® (aldesleukin). The test can be described thus: ELISA, coated Proleukin, serially diluted supernatant.
In test [4] the target is T1, Proleukin® (aldesleukin). Put plainly: SET assay (solution equilibration titration, MSD).
Procedure: A 22 serial 2n dilution of the antigen was prepared in sample buffer. A constant concentration of the antibody was added. […] A volume of 60 μl of each antigen:antibody mix was distributed in duplicates to a 384-well polypropylene microtiter plate (PP MTP). Sample buffer served as negative control and a sample containing no antigen as positive control (Bₘₐₓ). The plate was sealed and incubated overnight (o/n) at room temperature (RT). A 384-well standard MSD array plate was coated o/n with 2 μg/ml of IL-2. After three times washing with washing buffer, the plate was blocked with 50 μl/well blocking buffer for 1 hour at RT. After washing, a volume of 30 μl/well of the antigen:antibody mix was transferred from the PP MTP to the coated MSD plate and incubated for 20 min at RT. After an additional wash step, 30 μl of detection antibody (diluted 1:2000) in sample buffer was added to each well and incubated for 30 min at RT. The MSD plate was washed and 35 μl/well of read buffer was added and incubated for 5 min. ECL signals were measured with the MSD SECTOR Imager 6000.

T1 sequence (P60568 other isoform, or with tags, fused parts or gaps limits assumed): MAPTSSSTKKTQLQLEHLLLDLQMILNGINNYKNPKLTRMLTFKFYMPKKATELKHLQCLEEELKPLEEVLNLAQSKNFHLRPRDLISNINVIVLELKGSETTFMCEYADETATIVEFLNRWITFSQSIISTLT

B1: 104346 (antibody, V domains shown)
VH: QVQLVESGGGVVQPGRSLRLSCAASGYTFSSYLIEWVRQAPGKGLEWVAVINPGSGGTNYADSVKGRFTISADKSKNTAYLQMNSLRAEDTAVYYCARWRGDGYYAYFDVWGQGTTVTVSS
VL: DIVLTQSPLSLPVTLGQPASISCKASQSVDYDGDSYMNWYQQRPGQSPRLLIYAASNLESGVPDRFSGSGSGTDFTLKISRVEAEDVGVYYCQQSNEDPYTFGGGTKVEIK
notes: VH3s/VK2
Turning to B1, in test [1], a half-maximal response (EC50) required 1700 pM.

B2: Antibody No: 8 (antibody, human IgG1, kappa, N297A, V domains shown)
VH: EVQLVQSGAEVKKPGESLKISCKGSGYAFTNYLIEWVRQMPGKGLEWMGVINPGSGGTNYNEKFKGQVTISADKSISTAYLQWSSLKASDTAMYYCARWRGEGYYAYYDVWGQGTTVTVSS
VL: AIRLTQSPSSFSASTGDRVTITCKASQSVDYQGDSYMNWYQQKPGKAPKLLIYSASNLESGVPSRFSGSGSGTDFTLTISSLQSEDFATYYCQQSNEDPYTFGGGTKVEIKR
notes: VK A50S; also called 108923
For the molecule B2, the EC50 (in general, the concentration needed to bring the measured effect to its halfway point) in test [1] worked out at 50 pM. Also, in test [2], the “ELISA value (Normal ELISA)” value turned out to be 9370 luminescence signal, the “ELISA value (wash 3x every hour for 4 HRS)” value came out at 7310 luminescence signal and the “ELISA value (wash 3x every hour for 12 HRS)” value is 2530 luminescence signal. This molecule returned an EC50 in test [3] of 240 pM.

B3: 104350 (antibody, V domains shown)
VH: EVQLVQSGAEVKKPGESLKISCKGSGYAFTNYLIEWVRQMPGKGLEWMGVINPGSGGTNYNEKFKGQVTISADKSISTAYLQWSSLKASDTAMYYCARWRGDGYYAYFDVWGQGTTVTVSS
VL: EIVLTQSPATLSVSPGERATLSCRASQSVSYDGDSYMNWYQQKPGQAPRLLIYAASNLASGIPARFSGSGSGTEFTLTISSLQSEDAAVYYCQQSNEDPYTFGGGTKVEIK
notes: VH5/VK3s
In test [1], B3 showed an EC50 of 800 pM.

B4: Antibody No: 13 (antibody, human IgG1, kappa, N297A, V domains shown)
VH: EVQLVQSGAEVKKPGESLKISCKGSGYAFTNYLIEWVRQMPGKGLEWMGVINPGSGGTYYNEKFKGQVTISADKSISTAYLQWSSLKASDTAMYYCARWRGEGYYAYFDVWGQGTTVTVSS
VL: AIRLTQSPSSFSASTGDRVTITCKASQSVDYQGDSYMNWYQQKPGKAPKLLIYSASNLESGVPSRFSGSGSGTDFTLTISSLQSEDFATYYCQQSNEDPYTFGGGTKVEIKR
notes: VH N58Y; VK A50S; also called 108925
In the case of B4, a half-maximal response in test [1] (EC50) required 60 pM. In addition, in test [2], the “ELISA value (Normal ELISA)” value amounted to 14500 luminescence signal, the “ELISA value (wash 3x every hour for 4 HRS)” value is 14600 luminescence signal and the “ELISA value (wash 3x every hour for 12 HRS)” value was determined as 4520 luminescence signal. For the same molecule, the concentration for a half-maximal effect (EC50) in test [3] came to 190 pM.

B5: 104348_VH5D98E_VK1 (antibody, V domains shown)
VH: EVQLVQSGAEVKKPGESLKISCKGSGYAFTNYLIEWVRQMPGKGLEWMGVINPGSGGTNYNEKFKGQVTISADKSISTAYLQWSSLKASDTAMYYCARWRGEGYYAYFDVWGQGTTVTVSS
VL: AIRLTQSPSSFSASTGDRVTITCKASQSVDYDGDSYMNWYQQKPGKAPKLLIYAASNLESGVPSRFSGSGSGTDFTLTISSLQSEDFATYYCQQSNEDPYTFGGGTKVEIK
notes: Human IgG1 Fc domain with the N297A point mutation
B5 displayed an EC50 in test [1] of 770 pM. Moreover, the Kd – broadly, the concentration at which binding is half-saturated – in test [4] was found to be 206 pM.

B6: 104349_VH5D98E_VK2 (antibody, V domains shown)
VH: EVQLVQSGAEVKKPGESLKISCKGSGYAFTNYLIEWVRQMPGKGLEWMGVINPGSGGTNYNEKFKGQVTISADKSISTAYLQWSSLKASDTAMYYCARWRGEGYYAYFDVWGQGTTVTVSS
VL: DIVLTQSPLSLPVTLGQPASISCKASQSVDYDGDSYMNWYQQRPGQSPRLLIYAASNLESGVPDRFSGSGSGTDFTLKISRVEAEDVGVYYCQQSNEDPYTFGGGTKVEIK
notes: as for B5
In test [1], B6 showed an EC50 of 560 pM. For the same molecule, binding in test [4] was put at a Kd of 178 pM.

B7: 104349_VH5_VK2D28Q (antibody, V domains shown)
VH: EVQLVQSGAEVKKPGESLKISCKGSGYAFTNYLIEWVRQMPGKGLEWMGVINPGSGGTNYNEKFKGQVTISADKSISTAYLQWSSLKASDTAMYYCARWRGDGYYAYFDVWGQGTTVTVSS
VL: DIVLTQSPLSLPVTLGQPASISCKASQSVDYQGDSYMNWYQQRPGQSPRLLIYAASNLESGVPDRFSGSGSGTDFTLKISRVEAEDVGVYYCQQSNEDPYTFGGGTKVEIK
notes: as for B5
The molecule B7 returned a 50% effective concentration (EC50) in test [1] of 430 pM. Moreover, the Kd in test [4] was found to be 69 pM.

B8: Antibody No: 15 (antibody, human IgG1, kappa, N297A, V domains shown)
VH: EVQLVQSGAEVKKPGESLKISCKGSGYAFTNYLIEWVRQMPGKGLEWMGVINPGSGGTYYNEKFKGQVTISADKSISTAYLQWSSLKASDTAMYYCARWRGEGYYAYFDVWGQGTTVTVSS
VL: AIRLTQSPSSFSASTGDRVTITCKASQSVDYQGDSYLNWYQQKPGKAPKLLIYSASNLESGVPSRFSGSGSGTDFTLTISSLQSEDFATYYCQQSNEDPYTFGGGTKVEIKR
notes: VH N58Y; VK M33L + A50S; also called 108926
B8 gave an EC50 in test [1] of 50 pM. Further, in test [2], the “ELISA value (Normal ELISA)” value came out at 11100 luminescence signal, the “ELISA value (wash 3x every hour for 4 HRS)” value came to 10500 luminescence signal and the “ELISA value (wash 3x every hour for 12 HRS)” value is 3800 luminescence signal. Moreover, in test [3], a half-maximal response (EC50) required 280 pM.

B9: Antibody No: 20 (antibody, human IgG1, kappa, N297A, V domains shown)
VH: EVQLVQSGAEVKKPGESLKISCKGSGYAFTNYLIEWVRQMPGKGLEWMGVINPGSGGTYYNEKFKGQVTISADKSISTAYLQWSSLKASDTAMYYCARWRGEGYYAYYDVWGQGTTVTVSS
VL: AIRLTQSPSSFSASTGDRVTITCKASQSVDYQGDSYLNWYQQKPGKAPKLLIYSASNLESGVPSRFSGSGSGTDFTLTISSLQSEDFATYYCQQSNEDPYTFGGGTKVEIKR
notes: VK M33L + A50S; also called 108928
B9 returned an EC50 in test [1] of 710 pM. Moreover, in test [2], the “ELISA value (Normal ELISA)” value was 11700 luminescence signal, the “ELISA value (wash 3x every hour for 4 HRS)” value was 11100 luminescence signal and the “ELISA value (wash 3x every hour for 12 HRS)” value is 5200 luminescence signal. The molecule further yielded an EC50 in test [3] of 270 pM.

B10: 104349_VH5D98E_VK2D28Q (antibody, V domains shown)
VH: EVQLVQSGAEVKKPGESLKISCKGSGYAFTNYLIEWVRQMPGKGLEWMGVINPGSGGTNYNEKFKGQVTISADKSISTAYLQWSSLKASDTAMYYCARWRGEGYYAYFDVWGQGTTVTVSS
VL: DIVLTQSPLSLPVTLGQPASISCKASQSVDYQGDSYMNWYQQRPGQSPRLLIYAASNLESGVPDRFSGSGSGTDFTLKISRVEAEDVGVYYCQQSNEDPYTFGGGTKVEIK
notes: as for B5
The molecule B10 showed an EC50 in test [1] of 660 pM. Moreover, the affinity in test [4], expressed as Kd, was 188 pM.

B11: Antibody No: 12 (antibody, human IgG1, kappa, N297A, V domains shown)
VH: EVQLVQSGAEVKKPGESLKISCKGSGYAFTNYLIEWVRQMPGKGLEWMGVINPGSGGTYYNEKFKGQVTISADKSISTAYLQWSSLKASDTAMYYCARWRGEGYYAYFDVWGQGTTVTVSS
VL: AIRLTQSPSSFSASTGDRVTITCKASQSVDYQGDSYLNWYQQKPGKAPKLLIYAASNLESGVPSRFSGSGSGTDFTLTISSLQSEDFATYYCQQSNEDPYTFGGGTKVEIKR
notes: VH N58Y; VK M33L; also called 108924
In test [1], B11 yielded a half-maximal effective concentration (EC50) of 110 pM. In test [2], the “ELISA value (Normal ELISA)” value amounted to 20000 luminescence signal, the “ELISA value (wash 3x every hour for 4 HRS)” value turned out to be 17400 luminescence signal and the “ELISA value (wash 3x every hour for 12 HRS)” value was found to be 5960 luminescence signal. In test [3], this molecule registered an EC50 of 250 pM.

B12: 104341 (antibody, V domains shown)
VH: QVQLVQSGAEVKKPGSSVKVSCKASGYAFTNYLIEWVRQAPGQGLEWMGVINPGSGGTNYNEKFKGRVTITADKSTSTAYMELSSLRSEDTAVYYCARWRGDGYYAYFDVWGQGTTVTVSS
VL: AIRLTQSPSSFSASTGDRVTITCKASQSVDYDGDSYMNWYQQKPGKAPKLLIYAASNLESGVPSRFSGSGSGTDFTLTISSLQSEDFATYYCQQSNEDPYTFGGGTKVEIK
notes: VH1/VK1
In test [1], B12 registered an EC50 of 400 pM.

B13: 104345 (antibody, V domains shown)
VH: QVQLVESGGGVVQPGRSLRLSCAASGYTFSSYLIEWVRQAPGKGLEWVAVINPGSGGTNYADSVKGRFTISADKSKNTAYLQMNSLRAEDTAVYYCARWRGDGYYAYFDVWGQGTTVTVSS
VL: AIRLTQSPSSFSASTGDRVTITCKASQSVDYDGDSYMNWYQQKPGKAPKLLIYAASNLESGVPSRFSGSGSGTDFTLTISSLQSEDFATYYCQQSNEDPYTFGGGTKVEIK
notes: VH3s/VK1
Molecule B13 registered an EC50 in test [1] of 2900 pM.

B14: 104343_VH1D98E_VK2D28Q (antibody, V domains shown)
VH: QVQLVQSGAEVKKPGSSVKVSCKASGYAFTNYLIEWVRQAPGQGLEWMGVINPGSGGTNYNEKFKGRVTITADKSTSTAYMELSSLRSEDTAVYYCARWRGEGYYAYFDVWGQGTTVTVSS
VL: DIVLTQSPLSLPVTLGQPASISCKASQSVDYQGDSYMNWYQQRPGQSPRLLIYAASNLESGVPDRFSGSGSGTDFTLKISRVEAEDVGVYYCQQSNEDPYTFGGGTKVEIK
notes: as for B5
B14 had a concentration giving a half-maximal response (EC50) in test [1] of 750 pM. In test [4], this molecule came in with a Kd of 111 pM.

B15: 104344 (antibody, V domains shown)
VH: QVQLVQSGAEVKKPGSSVKVSCKASGYAFTNYLIEWVRQAPGQGLEWMGVINPGSGGTNYNEKFKGRVTITADKSTSTAYMELSSLRSEDTAVYYCARWRGDGYYAYFDVWGQGTTVTVSS
VL: EIVLTQSPATLSVSPGERATLSCRASQSVSYDGDSYMNWYQQKPGQAPRLLIYAASNLASGIPARFSGSGSGTEFTLTISSLQSEDAAVYYCQQSNEDPYTFGGGTKVEIK
notes: VH1/VK3s
Take B15: the EC50 in test [1] stood at 700 pM.

B16: 104343_VH1_VK2D28Q (antibody, V domains shown)
VH: QVQLVQSGAEVKKPGSSVKVSCKASGYAFTNYLIEWVRQAPGQGLEWMGVINPGSGGTNYNEKFKGRVTITADKSTSTAYMELSSLRSEDTAVYYCARWRGDGYYAYFDVWGQGTTVTVSS
VL: DIVLTQSPLSLPVTLGQPASISCKASQSVDYQGDSYMNWYQQRPGQSPRLLIYAASNLESGVPDRFSGSGSGTDFTLKISRVEAEDVGVYYCQQSNEDPYTFGGGTKVEIK
notes: as for B5
With B16, the EC50 in test [1] is 590 pM. For the same molecule, the Kd in test [4] is 69 pM.

B17: 104343_VH1D98E_VK2 (antibody, V domains shown)
VH: QVQLVQSGAEVKKPGSSVKVSCKASGYAFTNYLIEWVRQAPGQGLEWMGVINPGSGGTNYNEKFKGRVTITADKSTSTAYMELSSLRSEDTAVYYCARWRGEGYYAYFDVWGQGTTVTVSS
VL: DIVLTQSPLSLPVTLGQPASISCKASQSVDYDGDSYMNWYQQRPGQSPRLLIYAASNLESGVPDRFSGSGSGTDFTLKISRVEAEDVGVYYCQQSNEDPYTFGGGTKVEIK
notes: as for B5
On to B17, for which, in test [1], the concentration for a half-maximal effect (EC50) was 570 pM. In test [4], this molecule showed a Kd of 98 pM.
